Data as given in IntAct's records for PubMed 12629052.

Target: fkb1a_human FKBP1A (UniProt P62942)
Sequence (P62942 whole entry): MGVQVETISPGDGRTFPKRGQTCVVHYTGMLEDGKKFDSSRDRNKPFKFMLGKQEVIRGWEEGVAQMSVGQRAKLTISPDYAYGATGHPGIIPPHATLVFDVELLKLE

Ryanodine receptor 1 (Oryctolagus cuniculus (Rabbit)), P11716 S2843D
effect of a mutation on the interaction: disrupting interaction
